Experiments:
[1] = biological target: T1, human epithelial glycoprotein-2, recombinant soluble protein (M1-F259) with a six-histidine C-terminal tag (human, UniProt P16422 24-259); experiment: SPR (BIAcore), EGP-2 amine-coupled to CM-5 chip, scFv injected, 20 C
T1 construct: range 1-259; The stated range M1-F259 starts at the initiator methionine; also called recombinant soluble EGP-2-antigen; immobilized EGP-2
T1 sequence: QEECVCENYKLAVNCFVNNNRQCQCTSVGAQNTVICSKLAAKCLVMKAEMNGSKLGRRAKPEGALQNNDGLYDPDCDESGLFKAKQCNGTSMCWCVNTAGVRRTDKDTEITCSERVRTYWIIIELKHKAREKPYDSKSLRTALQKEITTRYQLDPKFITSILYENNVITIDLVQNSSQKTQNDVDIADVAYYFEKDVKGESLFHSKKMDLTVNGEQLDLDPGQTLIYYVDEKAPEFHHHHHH

[2] = biological target: T2, epithelial glycoprotein-2 (EGP-2) on EGP-2 overexpressing SW2 cells (human, UniProt P16422 24-314); experiment: RIA of 99mTc-labelled scFv on SW2 cells, 4 C
T2 construct: whole, on cells; Endogenous antigen of the human SW2 cell line; also called GA733-2; Ep-CAM
T2 sequence (looked up): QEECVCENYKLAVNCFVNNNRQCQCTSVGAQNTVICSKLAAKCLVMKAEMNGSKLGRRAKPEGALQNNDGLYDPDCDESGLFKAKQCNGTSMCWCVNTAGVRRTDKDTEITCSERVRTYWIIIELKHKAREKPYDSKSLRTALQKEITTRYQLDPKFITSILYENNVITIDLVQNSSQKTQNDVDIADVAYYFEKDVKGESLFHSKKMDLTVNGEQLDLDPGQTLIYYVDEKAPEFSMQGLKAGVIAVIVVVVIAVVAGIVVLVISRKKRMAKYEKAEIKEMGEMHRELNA

[3] = biological target: T1, human epithelial glycoprotein-2, …; experiment: SPR (BIAcore), immobilized EGP-2, low density coating and high flow rate

B1: anti-EGP-2 scFv fragment obtained from the murine hybridoma MOC31 (scFv)
chain: DIVMTQSAFSNPVTLGTSASISCRSTKSLLHSNGITYLYWYLQKPGQSPQLLIYQMSNLASGVPDRFSSSGSGTDFTLRISRVEAEDVGVYYCAQNLEIPRTFGGGTKLEIKRTPSHNSHQVPSAGGPTANSGTSGSQVQLQQSGPELKKPGETVKISCKASGYTFTNYGMNWVKQAPGRGLKWMGWINTYTGESTYADDFKGRFAFSLETSASAAYLQINNLKNEDTATYFCARFAIKGDYWGQGTTLTVSS
- Kd [1]: 3 nM
- koff [1]: 0.0003 s⁻¹
- kon [1]: 99000 M⁻¹ s⁻¹
- Kd [2]: 10.8 nM
- half-life of binding on its target [3]: ~38 min

B2: anti-EGP-2 scFv fragment 4D5MOC-B (scFv)
chain: DIQMTQSPSSLSASVGDRVTITCRSTKSLLHSNGITYLYWYQQKPGKAPKLLIYQMSNLASGVPSRFSSSGSGTDFTLTISSLQPEDFATYYCAQNLEIPRTFGQGTKVELKRTPSHNSHQVPSAGGPTANSGTSGSEVQLVQSGPGLVQPGGSVRISCAASGYTFTNYGMNWVKQAPGKGLEWMGWINTYTGESTYADSFKGRFTFSLDTSASAAYLQINSLRAEDTAVYYCARFAIKGDYWGQGTLLTVSS
- Kd [1]: 3.9 nM
- koff [1]: 0.000717 s⁻¹
- kon [1]: 184000 M⁻¹ s⁻¹
- Kd [2]: 3.7 nM

— US20020146846A1 (published 2002)
